Measured values published in EP3172325B1.

Legend:
[1] = target: MART-1 peptide on HLA-A*02:01 (human); test: SPR, Biacore 3000, TCR amine-coupled to a CM5 chip, refolded pMHC injected up to 100 micromolar, 25 C, 1:1 Langmuir model (Fig. 2); soluble, other
[2] = target: MART-1 peptide on HLA-A*02:01 (human); test: SPR, Biacore 3000, TCR amine-coupled to a CM5 chip, refolded pMHC injected, 25 C, 1:1 Langmuir model; Table 2 draws on Fig. 2 and published work (PMID: 24550723); soluble, other
[3] = target: MART-1 peptide on HLA-A*02:01 (human); test: SPR, Biacore 3000, TCR amine-coupled to a CM5 chip, refolded pMHC injected up to 100 micromolar, 1:1 Langmuir model (Fig. 4); weaker than αD26Y/βL98W (0.024) and wild-type DMF5 (9.5); soluble, other
[4] = target: MART-1 peptide on HLA-A*02:01 (human); test: SPR, Biacore 3000, TCR amine-coupled to a CM5 chip, refolded pMHC injected up to 100 micromolar, 1:1 Langmuir model (Fig. 4); soluble, other
[5] = target: MART-1 peptide on HLA-A*02:01 (human); test: SPR, Biacore 3000, TCR amine-coupled to a CM5 chip, refolded pMHC injected, 25 C; the same value stands in Table 2 r6, where the peptide is printed as AAG; soluble, other

A Kd [1] of 4500 nM and a Kd [2] of 460 nM were found for DMF5 TCR αD26Y in this work.

A Kd [3] of 556000 nM was found for DMF5 TCR αD26Y/αY50A/βL98W in this work.

A Kd [4] of 640 nM was found for DMF5 TCR αD26Y/αY50F/βL98W in this work.

A Kd [4] of 7140 nM was found for DMF5 TCR αD26Y/αY50V/βL98W in this work.

A Kd [4] of 660 nM was found for DMF5 TCR αD26Y/αY50W/βL98W in this work.

A Kd [5] of 24 nM was found for DMF5 TCR αD26Y/βL98W in this work.

A Kd [2] of 2900 nM was found for DMF5 TCR βL98W in this work.
